B3: photosynthetic GAPDH B-subunit from spinach (natural protein, UniProt P12860 84-451, looked up)
chain: KLKVAINGFGRIGRNFLRCWHGRKDSPLDVVVVNDSGGVKSATHLLKYDSILGTFKADVKIIDNETFSIDGKPIKVVSNRDPLKLPWAELGIDIVIEGTGVFVDGPGAGKHIQAGAKKVIITAPAKGSDIPTYVVGVNEKDYGHDVANIISNASCTTNCLAPFVKVLDEELGIVKGTMTTTHSYTGDQRLLDASHRDLRRARAAALNIVPTSTGAAKAVSLVLPQLKGKLNGIALRVPTPNVSVVDLVVNIEKVGVTAEDVNNAFRKAAAGPLKGVLDVCDIPLVSVDFRCSDFSSTIDSSLTMVMGGDMVKVVAWYDNEWGYSQRVVDLADLVANKWPGLEGSVASGDPLEDFCKDNPADEECKLYE

The target of data set [1] is insect Toll receptor ectodomain (insect (species not stated)) (UniProt P08953). In words: biophysical and cellular analysis.
Data set [2] concerns the molecule itself. Briefly: SEC-SAXS + cryo-EM structure.
Data set [3] concerns the target B3. In words: cryo-EM structure.
Data set [4] concerns the molecule itself. In words: cryo-EM structure.

Several values for one entry are separate records, joined by “and”; a condition that tells them apart may be missing. Equal entries are not always repeated.

From PMC8580805 (Biophysical Reviews, 2021) come the findings set out here.

insect Toll receptor ectodomain (insect (species not stated)), sequence (P08953 28-807): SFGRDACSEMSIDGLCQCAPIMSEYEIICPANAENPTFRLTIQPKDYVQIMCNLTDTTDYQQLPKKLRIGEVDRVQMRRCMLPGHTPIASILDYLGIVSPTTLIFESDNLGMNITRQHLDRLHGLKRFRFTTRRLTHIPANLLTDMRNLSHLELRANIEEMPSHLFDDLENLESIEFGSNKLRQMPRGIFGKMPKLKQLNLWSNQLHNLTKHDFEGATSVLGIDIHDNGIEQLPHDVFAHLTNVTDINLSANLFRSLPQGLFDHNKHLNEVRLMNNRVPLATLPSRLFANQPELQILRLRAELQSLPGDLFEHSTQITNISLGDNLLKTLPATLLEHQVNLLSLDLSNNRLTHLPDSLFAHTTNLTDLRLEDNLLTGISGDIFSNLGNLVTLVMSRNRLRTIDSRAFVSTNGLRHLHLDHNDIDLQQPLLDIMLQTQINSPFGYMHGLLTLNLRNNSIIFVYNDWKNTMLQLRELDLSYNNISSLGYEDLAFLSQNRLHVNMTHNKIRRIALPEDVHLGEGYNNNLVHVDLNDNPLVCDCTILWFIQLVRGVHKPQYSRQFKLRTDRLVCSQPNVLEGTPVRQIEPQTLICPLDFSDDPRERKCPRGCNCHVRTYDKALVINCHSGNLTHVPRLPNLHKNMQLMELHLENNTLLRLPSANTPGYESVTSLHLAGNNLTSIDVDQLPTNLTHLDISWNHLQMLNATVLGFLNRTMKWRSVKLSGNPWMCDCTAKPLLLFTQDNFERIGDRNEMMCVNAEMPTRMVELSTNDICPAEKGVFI

In data set [1], “insect cytokine ligand Spatzle (from UniProt P48607 26-326)” came in with a stoichiometry N (Toll per Spatzle (2:2)) of 1.

B1: photosynthetic AB-GAPDH, A2B2 hetero-tetramer (glyceraldehyde 3-phosphate dehydrogenase) from spinach (complex)
chain 1: KLKVAINGFGRIGRNFLRCWHGRKDSPLDVVVINDTGGVKQASHLLKYDSILGTFDADVKTAGDSAISVDGKVIKVVSDRNPVNLPWGDMGIDLVIEGTGVFVDRDGAGKHLQAGAKKVLITAPGKGDIPTYVVGVNEEGYTHADTIISNASCTTNCLAPFVKVLDQKFGIIKGTMTTTHSYTGDQRLLDASHRDLRRARAACLNIVPTSTGAAKAVALVLPNLKGKLNGIALRVPTPNVSVVDLVVQVSKKTFAEEVNAAFRESADNELKGILSVCDEPLVSIDFRCTDVSSTIDSSLTMVMGDDMVKVIAWYDNEWGYSQRVVDLADIVANKWQ
chain 2: KLKVAINGFGRIGRNFLRCWHGRKDSPLDVVVVNDSGGVKSATHLLKYDSILGTFKADVKIIDNETFSIDGKPIKVVSNRDPLKLPWAELGIDIVIEGTGVFVDGPGAGKHIQAGAKKVIITAPAKGSDIPTYVVGVNEKDYGHDVANIISNASCTTNCLAPFVKVLDEELGIVKGTMTTTHSYTGDQRLLDASHRDLRRARAAALNIVPTSTGAAKAVSLVLPQLKGKLNGIALRVPTPNVSVVDLVVNIEKVGVTAEDVNNAFRKAAAGPLKGVLDVCDIPLVSVDFRCSDFSSTIDSSLTMVMGGDMVKVVAWYDNEWGYSQRVVDLADLVANKWPGLEGSVASGDPLEDFCKDNPADEECKLYE
Consider B1, for which the “stoichiometry N” value in data set [2] was 2 A2B2 tetramers per oligomer and 4 A2B2 tetramers per oligomer and 5 A2B2 tetramers per oligomer.

B2: photosynthetic GAPDH A-subunit from spinach (natural protein, UniProt P19866 66-401, looked up)
chain: KLKVAINGFGRIGRNFLRCWHGRKDSPLDVVVINDTGGVKQASHLLKYDSILGTFDADVKTAGDSAISVDGKVIKVVSDRNPVNLPWGDMGIDLVIEGTGVFVDRDGAGKHLQAGAKKVLITAPGKGDIPTYVVGVNEEGYTHADTIISNASCTTNCLAPFVKVLDQKFGIIKGTMTTTHSYTGDQRLLDASHRDLRRARAACLNIVPTSTGAAKAVALVLPNLKGKLNGIALRVPTPNVSVVDLVVQVSKKTFAEEVNAAFRESADNELKGILSVCDEPLVSIDFRCTDVSSTIDSSLTMVMGDDMVKVIAWYDNEWGYSQRVVDLADIVANKWQ
Turning to B2, the binding result in data set [3] is reported as “binds”.

On to B3, for which, in data set [4], the binding result is “binds”.
